Assay results: the supplement of paper PMC6757056
± gives the standard deviation of the averaged measurements.

B1: library; a variant is named by its letters at N, in order (parent)
chain: GCUGUCACCGGUGUAUUACCCUAGUGGUCGACCGGUCUGAUGAGUCUNNNNNNAGACGAAACAGC

Experiments:
[1] = variants of: B1; test: normalized RNA/DNA level with ligand (relative to sTRSVctl = 100) (log10 (% of sTRSVctl)); ligand: hypoxanthine (xanthine aptamer); higher = less ribozyme self-cleavage, higher mRNA level; details: ligand concentration (+) RNA-Seq: 5 mM, HEK293T, reporter: mCherry (pCS4076), ligand present: yes
Method in brief: (§1)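 HEK293T cells were transfected with library plasmids carrying ribozyme switches linked to an mCherry reporter, or an eGFP reporter in some ligand experiments, at 4 µg per well of a 6-well plate, with any ligand added 1 h beforehand. After 72 h, total RNA was extracted with EDTA, reverse-transcribed, amplified, barcoded and sequenced. RNA level was defined as RNA reads over DNA reads, normalized to a spiked-in non-cleaving sequence or to the top-ranked sequences. That value was multiplied by 100 and converted to log10, the top set was 25 sequences, and only sequences with ≥100 DNA reads were retained.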

[2] = variants of: B1; test: normalized RNA/DNA level without ligand (relative to sTRSVctl = 100) (log10 (% of sTRSVctl)); ligand: hypoxanthine (xanthine aptamer); higher = less ribozyme self-cleavage, higher mRNA level; details: HEK293T, reporter: mCherry (pCS4076), ligand present: no
Method in brief: as §1

[3] = variants of: B1; test: FACS-Seq fitted mean relative fluorescence mCherry/BFP without ligand (log10 relative fluorescence); ligand: hypoxanthine (xanthine aptamer); higher = higher reporter protein expression; details: HEK293T, ligand present: no
Method in brief: (§2)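 With or without ligand for 48 h, enriched HEK293T libraries carrying a lentiviral ribozyme-switch mCherry reporter and EF1α-BFP were sorted into 6 mCherry/BFP bins. Bin genomic DNA was amplified by PCR, barcoded and sequenced on MiSeq. Fluorescence was taken from normal fits to the resulting bin counts. Each fitted mean of log10(mCherry/BFP) was scaled to five spiked-in control ribozymes.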

[4] = variants of: B1; test: FACS-Seq fitted mean relative fluorescence mCherry/BFP with ligand (log10 relative fluorescence); ligand: hypoxanthine (xanthine aptamer); ligand concentration (+) FACS-Seq: 5 mM; higher = higher reporter protein expression; details: HEK293T, ligand present: yes
Method in brief: as §2

| Variant | normalized RNA/DNA level with ligand (log10) [1] | normalized RNA/DNA level without ligand (log10) [2] | FACS-Seq fitted mean (log10) [3] | FACS-Seq fitted mean (log10) [4] |
| --- | --- | --- | --- | --- |
| UACAUC | 1.979 ± 0.018 | 2 ± 0.03 |  |  |
| UACAUA | 1.93 ± 0.038 | 1.86 ± 0.024 |  |  |
| UACAUU | 1.941 ± 0.0099 | 1.855 ± 0.016 |  |  |
| CACCGU | 1.93 ± 0.064 | 1.892 ± 0.011 |  |  |
| CACCGG | 1.875 ± 0.0026 | 1.58 ± 0.13 |  |  |
| CACCGC | 2.015 ± 0.0091 | 1.91 ± 0.042 |  |  |
| CACAGC | 1.9491 ± 1.9e-05 | 1.87 ± 0.044 |  |  |
| CACAGG | 1.77 ± 0.089 | 1.26 ± 0.06 |  |  |
| CACAGA | 1.97 ± 0.05 | 1.847 ± 0.015 |  |  |
| CACAGU | 1.926 ± 0.0077 | 1.844 ± 0.0086 |  |  |
| UAAGAU | 1.907 ± 0.0056 | 1.72 ± 0.057 |  |  |
| UUUUGA | 1.98 ± 0.031 | 1.63 ± 0.023 | 0.455 ± 0.043 | 0.5 ± 0.019 |
| UACCUU | 1.927 ± 0.017 | 1.89 ± 0.054 |  |  |
| UACCUC | 1.99 ± 0.082 | 1.93 ± 0.067 |  |  |
| AACCUC | 1.937 ± 0.018 | 1.96 ± 0.027 |  |  |
| AACCUA | 1.93 ± 0.028 | 1.84 ± 0.047 |  |  |
| AACCUU | 1.9 ± 0.054 | 1.895 ± 0.0019 |  |  |
| UACAAA | 1.88 ± 0.063 | 1.755 ± 0.0034 |  |  |
| UACAAC | 1.97 ± 0.035 | 1.82 ± 0.081 |  |  |
| AUUGCG | 1.857 ± 0.015 | 1.41 ± 0.065 | -0.0459 ± 0.021 | 0.458 ± 0.028 |
| AUUGUG | 1.8 ± 0.023 | 1.39 ± 0.034 | 0.0887 ± 0.00064 | 0.469 ± 0.1 |
| UAACCU | 1.983 ± 0.011 | 1.91 ± 0.04 |  |  |
| UAACCA | 1.941 ± 0.018 | 1.89 ± 0.042 |  |  |
| GUUUUC | 1.92 ± 0.025 | 1.952 ± 0.01 | -0.0599 ± 0.0079 | -0.0383 ± 0.14 |
| GUUUUU | 1.941 ± 0.0034 | 1.93 ± 0.05 | 0.142 ± 0.041 | 0.1 ± 0.015 |

| Variant | normalized RNA/DNA level with ligand (log10) [1] | normalized RNA/DNA level without ligand (log10) [2] | FACS-Seq fitted mean (log10) [3] | FACS-Seq fitted mean (log10) [4] |
| --- | --- | --- | --- | --- |
| GUUUUG | 1.9 ± 0.084 | 1.567 ± 0.002 | 0.498 ± 0.038 | 0.551 ± 0.047 |
| UAAUUG | 1.92 ± 0.051 | 1.74 ± 0.02 |  |  |
| GAAUUU | 1.964 ± 0.015 | 1.89 ± 0.022 |  |  |
| UUUUAU | 1.96 ± 0.018 | 1.85 ± 0.06 | 0.589 ± 0.097 | 0.296 ± 0.011 |
| UAAUGA | 1.91 ± 0.024 | 1.653 ± 0.0099 |  |  |
| UAAUGU | 1.89 ± 0.045 | 1.599 ± 0.0059 |  |  |
| UAAUGC | 1.93 ± 0.023 | 1.823 ± 0.0029 |  |  |
| UAAAGA | 1.891 ± 0.0053 | 1.57 ± 0.021 |  |  |
| AACAAA | 1.91 ± 0.035 | 1.785 ± 0.017 |  |  |
| AACAAC | 1.899 ± 0.015 | 1.8557 ± 0.001 |  |  |
| UAAUAC | 1.929 ± 0.013 | 1.79 ± 0.026 |  |  |
| AACACU | 1.92 ± 0.044 | 1.859 ± 0.018 |  |  |
| AAAUCC | 1.94 ± 0.055 | 1.829 ± 0.0029 |  |  |
| AAAUCU | 1.94 ± 0.089 | 1.9 ± 0.039 |  |  |
| GUUUGG | 1.92 ± 0.03 | 1.57 ± 0.06 | 0.231 ± 0.049 | 0.62263 ± 0.00024 |
| GACCCA | 1.928 ± 0.0094 | 1.833 ± 0.0075 |  |  |
| GACAAC | 1.93 ± 0.072 | 1.73 ± 0.021 |  |  |
| GACAAG | 1.83 ± 0.043 | 1.36 ± 0.018 |  |  |
| GACAAU | 1.897 ± 0.017 | 1.815 ± 0.013 |  |  |
| UACCAU | 1.914 ± 0.0031 | 1.832 ± 0.0068 |  |  |
| UACCAC | 1.88 ± 0.045 | 1.793 ± 0.016 |  |  |
| UAACUU | 1.97 ± 0.0029 | 1.899 ± 0.0086 |  |  |
| UAACUC | 2.009 ± 0.013 | 1.97 ± 0.04 |  |  |
| UAAAUC | 1.93 ± 0.044 | 1.97 ± 0.028 |  |  |
| AAAGUC | 1.98 ± 0.07 | 1.919 ± 0.0031 |  |  |

| Variant | normalized RNA/DNA level with ligand (log10) [1] | normalized RNA/DNA level without ligand (log10) [2] | FACS-Seq fitted mean (log10) [3] | FACS-Seq fitted mean (log10) [4] |
| --- | --- | --- | --- | --- |
| GAACGU | 1.9 ± 0.037 | 1.688 ± 0.014 |  |  |
| CUUGCA | 2.01 ± 0.023 | 1.87 ± 0.041 | 0.834 ± 0.021 | 0.882 ± 0.079 |
| CUUGCU | 2 ± 0.018 | 1.94 ± 0.097 | 0.359 ± 0.037 | 0.458 ± 0.056 |
| AUUGGA | 1.944 ± 0.0073 | 1.647 ± 0.013 | 0.196 ± 0.12 | 0.374 ± 0.042 |
| AUUGGU | 1.89 ± 0.048 | 1.66 ± 0.084 | 0.357 ± 0.04 | 0.601 ± 0.029 |
| AUUGGG | 1.87 ± 0.085 | 1.36 ± 0.03 | 0.0996 ± 0.0053 | 0.592 ± 0.018 |
| GUUGUG | 1.83 ± 0.042 | 1.39 ± 0.028 | 0.225 ± 0.066 | 0.406 ± 0.14 |
| GUUGUA | 1.9 ± 0.025 | 1.84 ± 0.032 | 0.455 ± 0.0078 | 0.632 ± 0.012 |
| GUUGUU | 1.969 ± 0.0045 | 1.9 ± 0.029 | 0.56 ± 0.026 | 0.67542 ± 0.00062 |
| GAAUCC | 1.93 ± 0.067 | 1.898 ± 0.008 |  |  |
| GAAUCU | 1.9 ± 0.069 | 1.9 ± 0.044 |  |  |
| CUUGAU | 1.94 ± 0.031 | 1.74 ± 0.011 | -0.553 ± 0.022 | -0.303 ± 0.012 |
| AAAUAC | 1.89 ± 0.026 | 1.77 ± 0.048 |  |  |
| GAACCU | 1.95 ± 0.043 | 1.92 ± 0.026 |  |  |
| GAACCC | 1.945 ± 0.0058 | 1.88 ± 0.026 |  |  |
| AACGAU | 1.9 ± 0.028 | 1.653 ± 0.011 |  |  |
| UAAAAG | 1.87 ± 0.025 | 1.627 ± 0.011 |  |  |
| CAAGUU | 1.93 ± 0.021 | 1.939 ± 0.0037 |  |  |
| CAAGUA | 1.89 ± 0.054 | 1.779 ± 0.011 |  |  |
| CAAGUG | 1.92 ± 0.026 | 1.81 ± 0.042 |  |  |
| UAAACA | 1.913 ± 0.017 | 1.875 ± 0.015 |  |  |
| UAAACU | 1.94 ± 0.039 | 1.87 ± 0.034 |  |  |
| UAAACC | 1.955 ± 0.016 | 1.91 ± 0.0052 |  |  |
| UAAACG | 1.9 ± 0.087 | 1.71 ± 0.036 |  |  |
| GAAAUC | 1.97 ± 0.022 | 1.88 ± 0.078 |  |  |

| Variant | normalized RNA/DNA level with ligand (log10) [1] | normalized RNA/DNA level without ligand (log10) [2] | FACS-Seq fitted mean (log10) [3] | FACS-Seq fitted mean (log10) [4] |
| --- | --- | --- | --- | --- |
| GAAAUU | 1.95 ± 0.046 | 1.87 ± 0.039 |  |  |
| CAAACG | 1.906 ± 0.0079 | 1.87 ± 0.06 |  |  |
| CAAACU | 1.94 ± 0.039 | 1.9 ± 0.035 |  |  |
| CAAACA | 1.93 ± 0.061 | 1.75 ± 0.039 |  |  |
| AAAAAC | 1.894 ± 0.015 | 1.8 ± 0.021 |  |  |
| GUUUCC | 1.95 ± 0.089 | 2.03 ± 0.06 | 0.703 ± 0.042 | 0.641 ± 0.02 |
| AUUUUU | 1.93 ± 0.054 | 1.88 ± 0.032 | 0.433 ± 0.019 | 0.378 ± 0.044 |
| AUUUUG | 1.933 ± 0.0027 | 1.59 ± 0.083 | 0.224 ± 0.041 | 0.466 ± 0.012 |
| GAAGUC | 1.97 ± 0.022 | 1.87 ± 0.035 |  |  |
| GAAGUA | 1.88 ± 0.05 | 1.741 ± 0.0072 |  |  |
| GAAGGU | 1.91 ± 0.068 | 1.73 ± 0.06 |  |  |
| GAAGGC | 1.889 ± 0.016 | 1.52 ± 0.044 |  |  |
| AAAUGU | 1.865 ± 0.013 | 1.633 ± 0.013 |  |  |
| AUUUGC | 1.91 ± 0.043 | 1.783 ± 0.0061 | 0.485 ± 0.047 | 0.704 ± 0.052 |
| AUUUGU | 1.923 ± 0.01 | 1.638 ± 0.013 | 0.6123 ± 2.1e-06 | 0.723 ± 0.041 |
| AUUUGA | 1.91 ± 0.033 | 1.6633 ± 0.00044 | 0.636 ± 0.085 | 0.602 ± 0.16 |
| CAACCG | 1.95 ± 0.096 | 1.89 ± 0.028 |  |  |
| CAACCU | 1.98 ± 0.049 | 1.911 ± 0.0025 |  |  |
| CAACCA | 1.95 ± 0.066 | 1.803 ± 0.0098 |  |  |
| CAACCC | 1.98 ± 0.012 | 1.855 ± 0.011 |  |  |
| UAAUCA | 1.955 ± 0.019 | 1.886 ± 0.0084 |  |  |
| UAAUCC | 1.917 ± 0.015 | 1.84 ± 0.041 |  |  |
| CAAUAU | 1.929 ± 0.016 | 1.811 ± 0.01 |  |  |
| CAAUAG | 1.905 ± 0.0064 | 1.69 ± 0.03 |  |  |
